{"source": "paper PMC10117100", "about": "“The E2F4/p130 Repressor Complex Cooperates with Oncogenic ΔNp73α To Inhibit Gene Expression in Human Papillomavirus 38 E6/E7-Transformed Keratinocytes and in Cancer Cells” (mSphere, 2023)", "binders": {"B1": {"name": "Gluc2-DP1 (natural protein, human, UniProt Q14186 1-410, looked up)", "chain": "MAKDAGLIEANGELKVFIDQNLSPGKGVVSLVAVHPSTVNPLGKQLLPKTFGQSNVNIAQQVVIGTPQRPAASNTLVVGSPHTPSTHFASQNQPSDSSPWSAGKRNRKGEKNGKGLRHFSMKVCEKVQRKGTTSYNEVADELVAEFSAADNHILPNESAYDQKNIRRRVYDALNVLMAMNIISKEKKEIKWIGLPTNSAQECQNLEVERQRRLERIKQKQSQLQELILQQIAFKNLVQRNRHAEQQASRPPPPNSVIHLPFIIVNTSKKTVIDCSISNDKFEYLFNFDNTFEIHDDIEVLKRMGMACGLESGSCSAEDLKMARSLVPKALEPYVTEMAQGTVGGVFITTAGSTSNGTRFSASDLTNGADGMLATSSNGSQYSGSRVETPVSYVGEDDEEDDDFNENDEDD", "notes": "human DP1, whole ORF (bought from Addgene); source: HEK293T, transfected (pSPICA vector), in cells; not shown: Gluc2 (fragment of Gaussia princeps luciferase), N-terminal, kept"}, "B2": {"name": "Gluc2-E2F4 FL (natural protein)", "chain": "not shown", "notes": "human E2F4, whole ORF (bought from Addgene), 413 residues by the printed numbering; source: HEK293T, transfected (pSPICA vector), in cells; not shown: Gluc2 (fragment of Gaussia princeps luciferase), N-terminal, kept"}}, "experiment_in_all_cases": "split reporter (BiFC, NanoBiT); Gaussia princeps protein complementation assay (GPCA): Gluc1 and Gluc2 N-terminal fusions co-transfected in HEK293T, luminescence of lysates after 48 h as normalized luminescence ratio (NLR); pairs count as interacting if NLR is above 5", "settings_in_all_cases": "partners not purified", "key": {"Gluc1-E2F4": {"target": "T1, Gluc1-E2F4 (human, UniProt Q16254 1-413)", "T1 construct": "human E2F4, whole ORF (bought from Addgene); source: HEK293T, transfected (pSPICA vector), in cells; not shown: Gluc1 (fragment of Gaussia princeps luciferase), N-terminal, kept", "T1 sequence (Q16254 whole entry, the tested form may be a part)": "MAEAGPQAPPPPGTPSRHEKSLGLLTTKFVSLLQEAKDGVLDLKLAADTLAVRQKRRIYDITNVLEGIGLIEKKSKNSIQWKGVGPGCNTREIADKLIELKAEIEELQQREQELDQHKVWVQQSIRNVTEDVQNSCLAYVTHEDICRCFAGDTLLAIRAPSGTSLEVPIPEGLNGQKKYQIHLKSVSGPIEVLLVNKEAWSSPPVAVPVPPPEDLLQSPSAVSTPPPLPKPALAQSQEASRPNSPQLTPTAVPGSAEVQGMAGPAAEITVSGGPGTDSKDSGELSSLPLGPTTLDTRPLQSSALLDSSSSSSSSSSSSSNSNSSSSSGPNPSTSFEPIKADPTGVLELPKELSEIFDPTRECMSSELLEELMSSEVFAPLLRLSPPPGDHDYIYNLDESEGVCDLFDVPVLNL"}, "Gluc1-TAp73α": {"target": "T2, Gluc1-TAp73α (human, UniProt O15350 1-636)", "T2 construct": "also called full-length TAp73α; source: HEK293T, transfected (pSPICA vector), in cells; not shown: Gluc1 (fragment of Gaussia princeps luciferase), N-terminal, kept", "T2 sequence (looked up)": "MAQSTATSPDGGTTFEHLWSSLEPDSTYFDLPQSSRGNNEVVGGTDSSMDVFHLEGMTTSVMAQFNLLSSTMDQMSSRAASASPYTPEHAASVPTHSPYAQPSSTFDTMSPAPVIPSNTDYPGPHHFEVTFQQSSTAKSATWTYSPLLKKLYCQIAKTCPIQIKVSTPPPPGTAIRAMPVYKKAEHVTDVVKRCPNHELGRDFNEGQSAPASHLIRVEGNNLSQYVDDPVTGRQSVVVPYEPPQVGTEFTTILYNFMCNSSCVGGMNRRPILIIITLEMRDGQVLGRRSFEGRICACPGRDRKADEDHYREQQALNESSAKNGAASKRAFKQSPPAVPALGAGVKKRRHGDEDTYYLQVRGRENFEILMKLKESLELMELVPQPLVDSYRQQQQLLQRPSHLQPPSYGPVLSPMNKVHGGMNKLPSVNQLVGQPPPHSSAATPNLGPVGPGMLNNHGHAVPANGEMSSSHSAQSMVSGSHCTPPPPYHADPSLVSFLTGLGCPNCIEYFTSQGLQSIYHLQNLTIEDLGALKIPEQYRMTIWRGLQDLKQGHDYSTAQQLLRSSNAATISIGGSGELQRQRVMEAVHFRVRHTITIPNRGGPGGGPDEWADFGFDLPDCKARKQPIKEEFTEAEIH"}, "Gluc1-ΔNp73α FL": {"target": "T3, Gluc1-ΔNp73α FL (human, UniProt O15350-8 1-587)", "T3 construct": "ΔNp73α isoform of p73, whole ORF, 587 residues by the printed numbering; numbers count on: ΔNp73α; source: HEK293T, transfected (pSPICA vector), in cells; not shown: Gluc1 (fragment of Gaussia princeps luciferase), N-terminal, kept", "T3 sequence (looked up)": "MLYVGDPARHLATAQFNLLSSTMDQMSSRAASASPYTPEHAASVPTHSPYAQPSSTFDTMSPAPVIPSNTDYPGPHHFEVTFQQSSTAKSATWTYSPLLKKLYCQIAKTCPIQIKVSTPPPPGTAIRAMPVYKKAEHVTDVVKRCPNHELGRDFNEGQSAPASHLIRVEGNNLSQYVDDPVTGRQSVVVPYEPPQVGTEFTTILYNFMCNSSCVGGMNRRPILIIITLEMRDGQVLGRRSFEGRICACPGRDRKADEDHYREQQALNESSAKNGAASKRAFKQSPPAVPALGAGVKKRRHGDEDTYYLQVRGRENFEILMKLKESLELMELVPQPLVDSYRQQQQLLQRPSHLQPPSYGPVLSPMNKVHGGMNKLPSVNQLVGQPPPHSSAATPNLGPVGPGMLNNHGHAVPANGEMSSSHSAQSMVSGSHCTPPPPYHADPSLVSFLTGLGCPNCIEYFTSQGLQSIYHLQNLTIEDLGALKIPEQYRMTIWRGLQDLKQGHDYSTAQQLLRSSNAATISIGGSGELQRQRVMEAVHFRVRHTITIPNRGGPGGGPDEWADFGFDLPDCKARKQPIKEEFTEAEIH"}}, "data": [{"binder": "B1", "values": [{"measurement": "normalized luminescence ratio (NLR)", "setting": "Gluc1-E2F4", "value": "~500"}]}, {"binder": "B2", "values": [{"measurement": "binding response relative to that obtained with ΔNp73α", "setting": "Gluc1-TAp73α", "value": "~50", "unit": "%"}, {"measurement": "normalized luminescence ratio (NLR)", "setting": "Gluc1-ΔNp73α FL", "value": "> 20"}]}]}
